B1: 4384416: IMAGE clone protein: BTK, Bruton agammaglobulinemia tyrosine kinase (protein, UniProt Q06187 2-659, looked up)
Tyrosine-protein kinase BTK: AAVILESIFLKRSQQKKKTSPLNFKKRLFLLTVHKLSYYEYDFERGRRGSKKGSIDVEKITCVETVVPEKNPPPERQIPRRGEESSEMEQISIIERFPYPFQVVYDEGPLYVFSPTEELRKRWIHQLKNVIRYNSDLVQKYHPCFWIDGQYLCCSQTAKNAMGCQILENRNGSLKPGSSHRKTKKPLPPTPEEDQILKKPLPPEPAAAPVSTSELKKVVALYDYMPMNANDLQLRKGDEYFILEESNLPWWRARDKNGQEGYIPSNYVTEAEDSIEMYEWYSKHMTRSQAEQLLKQEGKEGGFIVRDSSKAGKYTVSVFAKSTGDPQGVIRHYVVCSTPQSQYYLAEKHLFSTIPELINYHQHNSAGLISRLKYPVSQQNKNAPSTAGLGYGSWEIDPKDLTFLKELGTGQFGVVKYGKWRGQYDVAIKMIKEGSMSEDEFIEEAKVMMNLSHEKLVQLYGVCTKQRPIFIITEYMANGCLLNYLREMRHRFQTQQLLEMCKDVCEAMEYLESKQFLHRDLAARNCLVNDQGVVKVSDFGLSRYVLDDEYTSSVGSKFPVRWSPPEVLMYSKFSSKSDIWAFGVLMWEIYSLGKMPYERFTNSETAEHIAQGLRLYRPHLASEKVYTIMYSCWHEKADERPTFKILLSNILDVMDEES
B2: 4398416: IMAGE clone protein: Csk, c-src tyrosine kinase (protein, UniProt P41241 2-450, looked up)
Tyrosine-protein kinase CSK: SAIQAAWPSGTECIAKYNFHGTAEQDLPFCKGDVLTIVAVTKDPNWYKAKNKVGREGIIPANYVQKREGVKAGTKLSLMPWFHGKITREQAERLLYPPETGLFLVRESTNYPGDYTLCVSCEGKVEHYRIMYHASKLSIDEEVYFENLMQLVEHYTTDADGLCTRLIKPKVMEGTVAAQDEFYRSGWALNMKELKLLQTIGKGEFGDVMLGDYRGNKVAVKCIKNDATAQAFLAEASVMTQLRHSNLVQLLGVIVEEKGGLYIVTEYMAKGSLVDYLRSRGRSVLGGDCLLKFSLDVCEAMEYLEGNNFVHRDLAARNVLVSEDNVAKVSDFGLTKEASSTQDTGKLPVKWTAPEALREKKFSTKSDVWSFGILLWEIYSFGRVPYPRIPLKDVVPRVEKGYKMDAPDGCPPAVYEVMKNCWHLDAATRPTFLQLREQLEHIKTHELHL
B3: 4778819: IMAGE clone protein: Hck, hemopoietic cell kinase (protein, UniProt P08103 2-524, looked up)
Tyrosine-protein kinase HCK: GGRSSCEDPGCPRSEGRAPRMGCVKSRFLRDGSKASKTEPSANQKGPVYVPDPTSSSKLGPNNSNSMPPGFVEGSEDTIVVALYDYEAIHREDLSFQKGDQMVVLEEAGEWWKARSLATKKEGYIPSNYVARVNSLETEEWFFKGISRKDAERHLLAPGNMLGSFMIRDSETTKGSYSLSVRDFDPQHGDTVKHYKIRTLDSGGFYISPRSTFSSLQELVLHYKKGKDGLCQKLSVPCVSPKPQKPWEKDAWEIPRESLQMEKKLGAGQFGEVWMATYNKHTKVAVKTMKPGSMSVEAFLAEANLMKSLQHDKLVKLHAVVSQEPIFIVTEFMAKGSLLDFLKSEEGSKQPLPKLIDFSAQISEGMAFIEQRNYIHRDLRAANILVSASLVCKIADFGLARIIEDNEYTAREGAKFPIKWTAPEAINFGSFTIKSDVWSFGILLMEIVTYGRIPYPGMSNPEVIRALEHGYRMPRPDNCPEELYNIMIRCWKNRPEERPTFEYIQSVLDDFYTATESQYQQQP
B4: 4537393: IMAGE clone protein: TTK protein kinase (protein, UniProt P33981 1-857, looked up)
Dual specificity protein …: MESEDLSGRELTIDSIMNKVRDIKNKFKNEDLTDELSLNKISADTTDNSGTVNQIMMMANNPEDWLSLLLKLEKNSVPLSDALLNKLIGRYSQAIEALPPDKYGQNESFARIQVRFAELKAIQEPDDARDYFQMARANCKKFAFVHISFAQFELSQGNVKKSKQLLQKAVERGAVPLEMLEIALRNLNLQKKQLLSEEEKKNLSASTVLTAQESFSGSLGHLQNRNNSCDSRGQTTKARFLYGENMPPQDAEIGYRNSLRQTNKTKQSCPFGRVPVNLLNSPDCDVKTDDSVVPCFMKRQTSRSECRDLVVPGSKPSGNDSCELRNLKSVQNSHFKEPLVSDEKSSELIITDSITLKNKTESSLLAKLEETKEYQEPEVPESNQKQWQSKRKSECINQNPAASSNHWQIPELARKVNTEQKHTTFEQPVFSVSKQSPPISTSKWFDPKSICKTPSSNTLDDYMSCFRTPVVKNDFPPACQLSTPYGQPACFQQQQHQILATPLQNLQVLASSSANECISVKGRIYSILKQIGSGGSSKVFQVLNEKKQIYAIKYVNLEEADNQTLDSYRNEIAYLNKLQQHSDKIIRLYDYEITDQYIYMVMECGNIDLNSWLKKKKSIDPWERKSYWKNMLEAVHTIHQHGIVHSDLKPANFLIVDGMLKLIDFGIANQMQPDTTSVVKDSQVGTVNYMPPEAIKDMSSSRENGKSKSKISPKSDVWSLGCILYYMTYGKTPFQQIINQISKLHAIIDPNHEIEFPDIPEKDLQDVLKCCLKRDPKQRISIPELLAHPYVQIQTHPVNQMAKGTTEEMKYVLGQLVGLNSPNSILKAAKTLYEHYSGGESHNSSSSKTFEKKRGKK
B5: 4498209: IMAGE clone protein: EPHB1, EphB1 (protein, UniProt P54762 18-984, looked up)
Ephrin type-B receptor 1: MEETLMDTRTATAELGWTANPASGWEEVSGYDENLNTIRTYQVCNVFEPNQNNWLLTTFINRRGAHRIYTEMRFTVRDCSSLPNVPGSCKETFNLYYYETDSVIATKKSAFWSEAPYLKVDTIAADESFSQVDFGGRLMKVNTEVRSFGPLTRNGFYLAFQDYGACMSLLSVRVFFKKCPSIVQNFAVFPETMTGAESTSLVIARGTCIPNAEEVDVPIKLYCNGDGEWMVPIGRCTCKPGYEPENSVACKACPAGTFKASQEAEGCSHCPSNSRSPAEASPICTCRTGYYRADFDPPEVACTSVPSGPRNVISIVNETSIILEWHPPRETGGRDDVTYNIICKKCRADRRSCSRCDDNVEFVPRQLGLTECRVSISSLWAHTPYTFDIQAINGVSSKSPFPPQHVSVNITTNQAAPSTVPIMHQVSATMRSITLSWPQPEQPNGIILDYEIRYYEKEHNEFNSSMARSQTNTARIDGLRPGMVYVVQVRARTVAGYGKFSGKMCFQTLTDDDYKSELREQLPLIAGSAAAGVVFVVSLVAISIVCSRKRAYSKEAVYSDKLQHYSTGRGSPGMKIYIDPFTYEDPNEAVREFAKEIDVSFVKIEEVIGAGEFGEVYKGRLKLPGKREIYVAIKTLKAGYSEKQRRDFLSEASIMGQFDHPNIIRLEGVVTKSRPVMIITEFMENGALDSFLRQNDGQFTVIQLVGMLRGIAAGMKYLAEMNYVHRDLAARNILVNSNLVCKVSDFGLSRYLQDDTSDPTYTSSLGGKIPVRWTAPEAIAYRKFTSASDVWSYGIVMWEVMSFGERPYWDMSNQDVINAIEQDYRLPPPMDCPAALHQLMLDCWQKDRNSRPRFAEIVNTLDKMIRNPASLKTVATITAVPSQPLLDRSIPDFTAFTTVDDWLSAIKMVQYRDSFLTAGFTSLQLVTQMTSEDLLRIGITLAGHQKKILNSIHSMRVQISQSPTAMA

The molecules below were run on autophosphorylation (phosphotyrosine) (assay: In vitro kinase library screen: autophosphorylation). Conditions: not given.
Type: biochemical
Protocol: Proteins were produced from DNA plasmids of Mock Luciferase, Promega, tyrosine kinase clone Spleen Tyrosine kinase (SYK, IMAGE ID# 3870426) and Eph receptor-A7 (EphA7, IMAGE ID# 3991628) (Incyte Genomics, CA) and immobilized on streptavidin or avidin coated NPT-IPR plates as described in the Example 7. To promote autophosphorylation in these immobilized and purified proteins, Mn++ ions were added in a 50 μl reaction containing 5 mM MgCl2, 5 mM MnCl2, 100 μM ATP, 25 mM Tris-HCl buffer pH 7.4, 0.05 mM Na3VO4, 0.004% TritonX-100, 2 mM DTT and EDTA-free protease inhibitor (Roche Molecular Biochemicals). This mixture was incubated with shaking at room temperature overnight to allow autophosphorylation. Following this incubation, wells were washed 2 times with TT-buffer and 2 times with water. Following this step, 50 ng Sulfo-TAG labeled anti-phosphotyrosine in buffer containing 25 mM Tris-HCl buffer pH 7.4, 5 mM MgCl2, 0.05 mM Na3VO4, 0.004% TritonX-100, 2 mM DTT and 0.05% IgG in a final volume of 50 μl was added followed by incubation at room temperature for 45 min. The unbound reagents were removed by one time washing with water, and the TAG label was detected in presence of 150 μl IPR assay buffer (0.4 mM Gly—Gly buffer, pH 7.8, 1 mM EDTA, 0.1 M TPA). The ECL signals were measured using an imaging plate reader.
(§1) Proteins were produced in an in vitro transcription and translation reaction as described in the Materials and Methods. […] The reaction was stopped by mixing with BB2 buffer. Biotinylated proteins from 50 μl of the mixture (representing 0.5 μl to 5 μl of TnT reaction) were immobilized onto streptavidin or avidin coated NPT-IPR plates by shaking at room temperature for 45 min. The activity of the immobilized protein towards pEY or autophosphorylation was further assayed by the methods described in examples 7 and 8.

Row | ECL signal | Molecule
1 | 1,503,772 | B1
2 | 349,847 | B2
3 | 1,198,625 | B3
4 | 50,479 | B4
5 | 3,138 | B5

What follows are molecules tested on pEY (assay: In vitro kinase library screen: activity towards pEY). Conditions: 5 ul of expressed protein.
Type: biochemical
Protocol: Proteins were produced in an in vitro transcription and translation reaction. […] The unbound components of the reaction containing endogenous kinases were removed by three washes with TT-buffer (25 mM Tris-HCl buffer pH 7.4 and 0.004% Triton), two five minutes washings with high-salt wash buffer (25 mM Tris-HCl buffer pH 7.4, 0.004% Triton, 1M NaCl and 5 mM DTT) and 3 more washes with TT-buffer. To these immobilized and purified proteins a tyrosine kinase substrate, 5 nM pEY (poly Glu-Tyr, Sigma, MO), was added in a 50 μl reaction solution containing 5 mM MgCl2, 5 mM MnCl2, 100 μM ATP, 25 mM Tris-HCl buffer pH 7.4, 0.05 mM Na3VO4, 0.004% TritonX-100, 2 mM DTT and EDTA-free protease inhibitor (Roche Molecular Biochemicals). This mixture was incubated with shaking at room temperature overnight to allow phosphorylation of the pEY substrate by the immobilized kinases. Following this incubation, 45 μl of this mixture was transferred to a streptavidin or avidin-coated NPT IPR plate coated with biotinylated anti-phosphotyrosine antibody (PY20, Zymed labs, CA) followed by incubation for 30 minutes at room temperature to allow the binding of the phosphorylated pEY substrate to the PY20 coated NPT plate. Following this binding step, 50 ng Sulfo-TAG labeled anti-phosphotyrosine in buffer containing 25 mM Tris-HCl buffer pH 7.4, 5 mM MgCl2, 0.05 mM Na3VO4, 0.004% TritonX-100, 2 mM DTT and 0.05% IgG was added followed by incubation at room temperature for 30 mm. The unbound reagents were removed by one time washing with water, and the TAG label was detected in presence of 150 μl IPR assay buffer (0.4 mM Gly-Gly buffer, pH 7.8, 1 mM EDTA, 0.1 M TPA). The ECL signals were measured using an imaging plate reader.
as §1

Row | HTS signal | Molecule
6 | 793,874 | B1
7 | 683,039 | B2
8 | 958,415 | B3
9 | 1,711 | B4
10 | 853 | B5
